One series addresses Hk-gaga (UniProt Q08605). Description: fluorescence anisotropy. The note with it: Zn2+, EMSA: 18 mM Tris-HCl pH 7.5, 90 mM KCl, 1.8 mM MgCl2, 0.2 mM TCEP, 9% glycerol, 0.11 mg/mL BSA, 2.2% NP-40, 0.02 mM ZnCl2, 20 C, 75 nM DNA, FA: 20 mM Tris-HCl …. For orientation: Polarisation of emitted light reports the rotation of a fluorescent probe.
The target in the next series is gaga-Hk (UniProt Q08605). Description: fluorescence anisotropy. As to conditions: Zn2+, EMSA: 18 mM Tris-HCl pH 7.5, 90 mM KCl, 1.8 mM MgCl2, 0.2 mM TCEP, 9% glycerol, 0.11 mg/mL BSA, 2.2% NP-40, 0.02 mM ZnCl2, 20 C, 75 nM DNA, FA: 20 mM Tris-HCl ….
Sequence of gaga-Hk (Q08605 other isoform, or with tags, fused parts or gaps): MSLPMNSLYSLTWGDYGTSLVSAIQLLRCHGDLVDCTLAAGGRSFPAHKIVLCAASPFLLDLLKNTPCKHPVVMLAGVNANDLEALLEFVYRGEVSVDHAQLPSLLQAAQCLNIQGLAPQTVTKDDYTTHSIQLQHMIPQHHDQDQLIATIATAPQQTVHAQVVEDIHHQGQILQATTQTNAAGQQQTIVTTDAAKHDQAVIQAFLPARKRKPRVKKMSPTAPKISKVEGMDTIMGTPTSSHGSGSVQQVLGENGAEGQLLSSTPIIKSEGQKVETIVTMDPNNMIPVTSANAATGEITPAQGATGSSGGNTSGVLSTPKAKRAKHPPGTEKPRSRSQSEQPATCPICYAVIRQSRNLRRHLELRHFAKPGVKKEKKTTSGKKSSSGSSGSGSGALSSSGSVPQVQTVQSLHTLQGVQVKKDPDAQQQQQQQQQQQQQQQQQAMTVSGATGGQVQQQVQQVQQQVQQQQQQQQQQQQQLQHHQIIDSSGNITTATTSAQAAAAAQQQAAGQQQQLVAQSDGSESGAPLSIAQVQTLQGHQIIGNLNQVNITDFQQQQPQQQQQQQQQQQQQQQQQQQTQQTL
The target of another series is gaga-Hk-gaga (UniProt Q08605). Kind of series: fluorescence anisotropy. As to conditions: no calf thymus DNA; Zn2+; EMSA: 18 mM Tris-HCl pH 7.5, 90 mM KCl, 1.8 mM MgCl2, 0.2 mM TCEP, 9% glycerol, 0.11 mg/mL BSA, 2.2% NP-40, 0.02 mM ZnCl2, 20 C, 75 nM DNA; FA: 20 mM Tris-HCl ….
Sequence of gaga-Hk-gaga (Q08605 other isoform, or with tags, fused parts or gaps): as above
Series [1] deals with T1, gaga (GAGA Cys2-His2 zinc finger peptide) (UniProt Q08605 337-367).
T1 chain: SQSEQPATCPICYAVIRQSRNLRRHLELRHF
Description: EMSA; Zn2+; 1000 nM; EMSA: 18 mM Tris-HCl pH 7.5, 90 mM KCl, 1.8 mM MgCl2, 0.2 mM TCEP, 9% glycerol, 0.11 mg/mL BSA, 2.2% NP-40, 0.02 mM ZnCl2, 20 C, 75 nM DNA; FA: 20 mM Tris-HCl pH 7.5, 100 mM NaCl, 0.02 mM ZnCl2, 20 C, 25 nM DNA; nanopore: 100 mM NaCl, 0.02 mM ZnCl2, 20 mM Tris-HCl pH 7.5, 22 C. For orientation: Mobility shift assays separate free from complexed probe on a gel.

In general, Kd refers to the concentration at which binding is half-saturated.

Sequence of Hk-gaga (Q08605 other isoform, or with tags, fused parts or gaps): as the sequence (Q08605 other isoform, or with tags, fused parts or gaps) above

For the molecule “CGCGTCATAATTGAGAGCGC (double strand) [TMR-AT·GAG]”, the Kd amounted to 92 nM with Hk-gaga (50 uM bp calf thymus DNA), 44 nM in the series with Hk-gaga (no calf thymus DNA), 58 nM with gaga-Hk (50 uM bp calf thymus DNA) and 41 nM in the series with gaga-Hk (no calf thymus DNA).

For the molecule “CGCGTCATCAGCGAGAGCGC (double strand) [TMR-cg·GAG]”, the Kd in the series with gaga-Hk (no calf thymus DNA) turned out to be 100 nM.

For the molecule “GAGCTCTCAATTGAGAGCGCG (double strand) [TMR-CTC·AT·GAG]”, the Kd in the series with gaga-Hk-gaga is 35 nM. That is a double-digit nanomolar value.

B1: AT·GAG (= cat·AT·GAG) (dsDNA)
DNA 1: CGCGTCATAATTGAGAGCGC
DNA 2: GCGCTCTCAATTATGACGCG
For B1, the binding result in series [1] is “no binding”.

B2: cg·GAG (dsDNA)
DNA 1: CGCGTCATCAGCGAGAGCGC
DNA 2: GCGCTCTCGCTGATGACGCG
Take B2: the binding result in series [1] is recorded as “no binding”.

Values taken from PMC5941273, “DNA-binding miniproteins based on zinc fingers. Assessment of the interaction using nanopores† †Electronic supplementary information (ESI) available. See DOI: 10.1039/c7sc05441f”.
